Measured values published in the supplement of paper PMC12764529.
± gives the half width of the 95% confidence interval.

Tests used:
[1] = folding stability dG unfold from trypsin proteolysis; higher = more stable
In short: (§1)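 Unfolding free energy was derived, per protease or combined, by relating Bayesian-fitted K50 values from sequencing counts to a sequence-predicted unfolded-state K50 and a shared folded-state K50. The underlying digests exposed cysteine-free mini-proteins under 80 residues, in a PA-tagged cDNA display construct, to trypsin and chymotrypsin at 11 threefold-diluted concentrations and to a no-protease condition. A filter kept only designs with AlphaFold2 dimer inter-PAE above 15.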

[2] = folding stability dG unfold (combined trypsin and chymotrypsin); higher = more stable
In short: as §1

[3] = folding stability dG unfold from chymotrypsin proteolysis; higher = more stable
In short: as §1

Sequence | folding stability dG unfold [1] [kcal/mol] | folding stability dG unfold [2] [kcal/mol] | folding stability dG unfold [3] [kcal/mol]
SAGGSAGGSAGMSTTPVAYKFTFTLPGGETLEREGTDVAALKEALKAEYGAVEITVTPVSSAGGSAGGSAGG [r17_508_JUSTAS] | 2.2 ± 0.042 | 2.17 ± 0.1 | 2.07 ± 0.12
SAGGIKPDEPAIVLVKIPLPPGPNPEGGLEGPVLKTFPLEVGFPSLEELIEAVKELFPEGTEVEIIPSAGGS [r16_282_TrMRF] | 1.06 ± 0.042 | 0.455 ± 0.1 | -0.431 ± 0.13
SAGGGMTPTITVTVHYPGETVTITLSSIEEALEYLKKQGLPINPTHSDPNTLVIEFPDGRTVTITLSSAGGS [r8_365_JUSTAS] | 3.67 ± 0.15 | 3.98 ± 0.15 | 4.15 ± 0.16
SAGGKKPERVKITIMIPFDDPDKLRNFLRNHGFKVDEVEPNKEGMLAVEFEFPGYEIEIIIMDPGAMSAGGS [r16_170_TrROS] | 2.83 ± 0.16 | 3.35 ± 0.14 | 3.74 ± 0.087
SAGGSAGGSAEWKPITYWVPPGQSIKEIADDLMDKNPRITDAEMEYDPDGYMKVTLTVRLDSAGGSAGGSAG [r3_371_TrROS] | 0.493 ± 0.056 | 0.552 ± 0.086 | 0.505 ± 0.14
SAGGSAKKVIVIEVKPGEKITITINGKKVEIVEVKPEGETFLIRNKDTGEIYKITVVDGKVVIEKLSAGGSA [r15_235_TrROS_Hall] | 2.43 ± 0.09 | 3.74 ± 0.22 | 4.28 ± 0.076
SAGMTVEELKAQPKNATVTSVSRDPSTGLYTVTIERPDSNGKWVTHTLTLTGPEAVAAAVAAGLPSLAASAG [r5_905_JUSTAS] | 1.31 ± 0.026 | 2.16 ± 0.087 | 2.46 ± 0.043
SAGGWITPELIEEIAKTIAEENPENGKEVPIEVVIPFPNSVIKIEIEFDPSNGKIEIEDIKVIPPNDLSAGG [r13_37_TrROS] | 0.67 ± 0.12 | 1.16 ± 0.28 | 1.5 ± 0.12
SAGGMIVTTIPGSPAIKVEIPFPETPFSATITIPIAPDGTVTADLKPHPDMSEELIEKIKELAKELLKSAGG [r13_139_JUSTAS] | 1.03 ± 0.024 | 0.849 ± 0.092 | 0.829 ± 0.037
SAGGMVIVIKTPGGASELEIGDLTITTNPDTGLRVAEATPEQIEELLKADALKDIEEIEVLPIEELLSAGGS [r8_493_TrMRF] | 0.406 ± 0.047 | 0.243 ± 0.11 | -0.0529 ± 0.038
SAGGSAGGSAGGSMVLTTTVEETVVDENGVETKITVKTYKLPDSEITLVTFPDGTVTPESAGGSAGGSAGGS [r10_404_JUSTAS] | 0.493 ± 0.023 | 0.493 ± 0.072 | 0.462 ± 0.1
SAGGNNAWVQITIPITIKPVYEPEYDPDNGKPKWEPREMEIPITIWAPFDDPEDAERAADDILKSLGISAGG [r13_35_TrROS] | 0.837 ± 0.037 | 0.756 ± 0.1 | 0.769 ± 0.12
SAGMEKVKLTFKTEDGSEVEIEIVKNEDGSYFVKVKVDKENQEIYVFNADGELIEKIKVKSLEDALKALSAG [r5_757_TrROS_Hall] | 1.69 ± 0.063 | 2.73 ± 0.12 | 3.19 ± 0.052
SAGGSEPEPLRVSEITDIKESVLPNGTLKATVTLKLPEKDEEVEIEVEASSEEEIEEAIEEIVKLESAGGSA [r2_248_JUSTAS] | 0.678 ± 0.089 | 0.482 ± 0.21 | 0.0425 ± 0.35
SAGGSKMPPGYKMIPIEIPFRTPEDLEQAINFAEELAREGFTIIDIDVEIPEGDNYRVEFHIMLPYSAGGSA [r2_350_TrROS] | 1.85 ± 0.056 | 2.31 ± 0.1 | 2.6 ± 0.048
SAGGSAPEVRLSASREGNTVTVLALKPVGDRTYLVVTTYEVRELGEGFLVLSSSEVIPLPDGEGFFSAGGSA [r15_725_TrMRF] | 1.626 ± 0.015 | 2.36 ± 0.032 | 2.66 ± 0.044
MRVVFEATYTDPEGVPVTETFVIPEEVLEEIEREGRPITREELVELAEEIIRDYTKEHDADVEFRFVEFEPS [r1_174_TrMRF] | 1.91 ± 0.086 | 2.27 ± 0.1 | 2.52 ± 0.025
SAGGSAGGSAGPIVYPYGKYLVVYNPETGALVVVELDPDGKVKKVVVFGKDGPLVELDDASAGGSAGGSAGG [r17_385_TrMRF] | 2.76 ± 0.067 | 3.14 ± 0.047 | 3.369 ± 0.022
SGGMVNATVTVTLPLPDLPPVTLTVTITEEATPEEAEARKKALAAELEAELRAAAADAALPAPALTSALLSA [r9_626_JUSTAS] | 1.85 ± 0.032 | 1.24 ± 0.29 | 0.156 ± 0.43
SAGGSAGSYLVRVRIRRPEDGKELADAVFEVPPDEPVTAEAILKELGIPPEEAKNIEIEVEVFELGSAGGSA [r15_665_TrMRF] | 2.26 ± 0.049 | 2.75 ± 0.061 | 3.05 ± 0.031
SAGVKPTPSGKNILEIDPETGKIRFVNNNGELFELPTGNDSLDAAIKEAVEKLGYPPDTPFNIDEIKIGSAG [r5_923_TrMRF] | 1.46 ± 0.044 | 1.54 ± 0.19 | 1.76 ± 0.065

Sequence | folding stability dG unfold [1] [kcal/mol] | folding stability dG unfold [2] [kcal/mol] | folding stability dG unfold [3] [kcal/mol]
SAGELTAEEIAERLRKLLEELGIEEVEVEVEEVEVEEEEEPVEEEEEEELSEEERERLRRERLEEEGLLSAG [r5_9_TrROS_Hall] | 1.59 ± 0.073 | 1.92 ± 0.12 | 2.1 ± 0.037
SAGGSAGGSAMVRIEFENGLVAEFPSDLPLEEVKEKAVELAKLLSNDKKPVKVKILDIKEEGSAGGSAGGSA [r18_213_TrMRF] | 0.14 ± 0.15 | 0.407 ± 0.17 | 0.763 ± 0.09
SAGGEETVTLELELEFEPGMTEEELEEKARELAEALAEELGLEVEVEVRVERDEDGRVRVTVEVRVKSAGGS [r16_279_TrROS_Hall] | 2.94 ± 0.076 | 2.56 ± 0.086 | 2.06 ± 0.051
SAGGSAGGSGEVLLLSANSFSFSEGDGLLVVVNLPNGGYVVLPFKKGDLNLNLPSSGYSEFFGSAGGSAGGS [r12_746_TrMRF] | 1.3 ± 0.034 | 1.59 ± 0.058 | 1.79 ± 0.046
SAGGSAGGNLTLPPDNIKRIWHVGDGHWLIKMDDNVLMINPGNGKIQTVKKEDADKLPPGDPFFSAGGSAGG [r6_890_TrROS] | -0.473 ± 0.2 | 0.0115 ± 0.15 | 0.0704 ± 0.19
SAGGSAGGEKGYKLVEITIPVTVYHGNKPYTIPIPIKVKSPEEVEKLKKFIENTSYDPTSGKFSSAGGSAGG [r6_197_TrMRF] | 0.607 ± 0.1 | 1.02 ± 0.13 | 1.28 ± 0.24
SAGGSLKDMPVEDLAKYFARKMGYPITDVKVERNPDPPWIKINIEMEHPNDGRRHPHEIWIPKDDISAGGSA [r2_156_TrROS] | 0.527 ± 0.062 | 0.995 ± 0.083 | 1.3 ± 0.11
SAGGSAGGSAGYLELKISFFDPDGQILASITIWIEIVIPPPPKMEYERDPEDGNNKWEHDSAGGSAGGSAGG [r17_348_TrROS] | 2.49 ± 0.23 | 2.26 ± 0.17 | 2.19 ± 0.056
SPSTTVETTVTIPYTYRLPDGTVLEYNLTISVTASLTNGGISTGDLKSAIDTALAAANIPPGPPDLPLLLRS [r1_175_JUSTAS] | 0.738 ± 0.13 | 1.83 ± 0.096 | 2.31 ± 0.098
SAGKKKKIKIKVKIIVNGKLKEIEIEVDENKTLEEILAEIKKKLPKNAIIIITNENGEKKIIILPKEELSAG [r5_77_TrROS_Hall] | 2.49 ± 0.24 | 1.89 ± 0.45 | 1.58 ± 0.1
SAGGSAMAPNVRPIPIFIDVPAEPFTRDPDGRIGLTPEELARRLAEEIRARTGAPIDTIVVHFHEPSAGGSA [r15_415_TrMRF] | 0.773 ± 0.11 | 0.409 ± 0.092 | -0.0348 ± 0.18
SAGGSAGGSAGGIKLENPNGFEVYKSPDSMVEIEFVNPNGKPMRYIIQVDEPGEIKPYPVSAGGSAGGSAGG [r7_423_TrROS] | 0.0628 ± 0.13 | 0.0566 ± 0.2 | 0.0804 ± 0.23
SAGGEVKPGDKVKVRLRLRVRLEDGEEVEVELEFVEVEVVPLSEEEKEKLEELKKKKPEVDPKNKELLSAGG [r13_330_TrROS_Hall] | 1.61 ± 0.13 | 1.81 ± 0.3 | 2.24 ± 0.11
SAGGSAGGSAGKLPEGMKMEVRPKTIFNEDGYMIKITIIRAPDPNILAINIEIIPPGDPISAGGSAGGSAGG [r11_338_TrROS] | 2.04 ± 0.12 | 2.14 ± 0.24 | 1.89 ± 0.14
SMRKVKRKVTLEITIKVPESVLKPIPDADYYTYPFDDKLVKPDAVIPRTVTITGPYTEEEVEKLVKEILSSA [r9_165_JUSTAS] | 0.749 ± 0.2 | 0.249 ± 0.25 | -0.613 ± 0.48
SAGGPNFTIKIEIEEIPNGVRVHKMTMELPDGHAWLMVMLYSPDPGKMFMIMVPVDPNGGIEDINIMPSAGG [r13_323_TrROS] | 2.52 ± 0.077 | 3.92 ± 0.19 | 4.12 ± 0.074
SAGGSAGGVKEALEELLKKLKPGEKKTITLEIEVDGKLVKIEIEVLPDGEIKITKIEEIPKEDLSAGGSAGG [r6_87_TrROS_Hall] | 2.97 ± 0.12 | 2.47 ± 0.16 | 1.95 ± 0.096
SAGGSAGGGAAPRTRVIEVLFPVPPDVTVEEIAERLRALYPDAVLVAEAERLPDGYVRVVVTLRSAGGSAGG [r6_566_TrMRF] | 2.49 ± 0.031 | 3.19 ± 0.083 | 3.54 ± 0.078
SAGDALKDIFPGLEIEPHEKPVKVPPGKPVEFAFIIRMPDGEIMIFDMHFNPGGEVRVRVLTIKLPEKSAGG [r19_125_TrROS] | 2.88 ± 0.16 | 3.96 ± 0.27 | 4.81 ± 0.14
SAGGSAMPPGEPIGSFSFPFNNGGNLMISAYPGGEIKISWWGPDGRPHEHEFPVKVKPPPPEDEGKSAGGSA [r15_478_TrROS] | 1.33 ± 0.053 | 1.6 ± 0.19 | 1.64 ± 0.07
SAGMTTTLTKGEDGVTLTFDLPGQSVTLTVPVPPDVEVTTSFPATGTTITGTPVGDTLTITVTVPAPASAGG [r19_384_JUSTAS] | 1.78 ± 0.028 | 1.69 ± 0.038 | 1.52 ± 0.041
